Assay results: the supplement of paper PMC7125110
± gives the standard error. Fewer inactive variants are shown than the library holds.

B1: glmS ribozyme (parent)
chain: AUAAAAGCGCCAGAACUACAGAAAUGUAGUUGACGAGGAGGAGGUUUAUCGAAUUUUCGGCGGAUGCCUCCAAA

Variants of: B1
Experiment: self-cleavage kobs at 2500 uM GlcN6P; higher = faster cleavage; RNA array
Settings: with glucosamine-6-phosphate
In short: (§1)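 On sequenced MiSeq chips, barcoded ribozyme variants were made in situ by E. coli RNA polymerase and followed at 37 °C through a hybridised Cy3 probe. Glucosamine-6-phosphate was flowed in at 40 μM to 10 mM in HEPES/KCl/Mg(OAc)2 buffer. Exponential fits to normalised per-tile medians gave kobs, and weighted Michaelis–Menten fits gave kcat and KM.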

Row | Variant | self-cleavage kobs at 2500 uM GlcN6P [s⁻¹]
1 | G41U G44U C67U U69G | < 1e-05
2 | U47C C61G | < 1e-05
3 | G40U C61U U65A | < 1e-05
4 | A42C U56G U65C C71U | < 1e-05
5 | A42C U45C A48U C61A | < 1e-05
6 | C50A C67A C70U | 0.000109 ± 3.7e-05
7 | G41C A48U A52C A53U | < 1e-05
8 | G40A U46G C67U | 0.000431 ± 0.0002
9 | U45G U57A | 5.34e-05 ± 1.2e-05
10 | G59U A64C G66C | < 1e-05
11 | U57A C67A C71A | 0.000181 ± 4.1e-05
12 | A53U U54C U57C C61G | < 1e-05
13 | A42U C50U G51U U54C | < 1e-05
14 | G41U U45C A64U | < 1e-05
15 | G40U U49A A64U C70U | < 1e-05
16 | A52C U57C G66U | < 1e-05
17 | C50G A52C U69C C70A | 0.000257 ± 8e-05
18 | G41C U47C C61G C67U | < 1e-05
19 | G40U C58G G60U C68U | < 1e-05
20 | G43A G59C C68G | < 1e-05
21 | G44A G51U U57A | < 1e-05
22 | G44U A52C U56C G63A C67U | < 1e-05

Row | Variant | self-cleavage kobs at 2500 uM GlcN6P [s⁻¹]
23 | G40U U54G C68U | 0.000121 ± 4.4e-05
24 | G41A A48U U57C G60A C61U C67U C71G | < 1e-05
25 | G43U U45C C71G | < 1e-05
26 | G41C G51C U56A G62A | < 1e-05
27 | U55G C58U C70U | 4.84e-05 ± 1.7e-05
28 | G40A G43C G60C C67U | < 1e-05
29 | G43C C58G | < 1e-05
30 | G43C G51C G59U | < 1e-05
31 | U56G G66C C71U | 0.000269 ± 5.5e-05
32 | A52G C61A C67U | 0.000197 ± 7.1e-05
33 | U47G G62U G63U U65G | < 1e-05
34 | G41C U49A U65A | < 1e-05
35 | A42G C61A U65C | < 1e-05
36 | U47A U56G C68A | 7.37e-05 ± 3.6e-05
37 | G51C G59A C71U | < 1e-05
38 | G40A G59C G63A C68A | < 1e-05
39 | U57C G66A | 4.71e-05 ± 1.3e-05
40 | U49G A53G U69G | 4.58e-05 ± 1.6e-05
41 | U45G U46A G66U | 0.000166 ± 3.9e-05
42 | G44U G60U C71A | < 1e-05
43 | C50U C61U U69A | 0.000118 ± 3.5e-05

Variants of: B1
Experiment: self-cleavage kobs at 10000 uM GlcN6P; higher = faster cleavage; RNA array
Settings: with glucosamine-6-phosphate
In short: as §1

Row | Variant | self-cleavage kobs at 10000 uM GlcN6P [s⁻¹]
44 | U47C C61G | < 1e-05
45 | C8U U31C A52U | < 1e-05
46 | G9A A15U G29U C68G | < 1e-05
47 | A6C A48U U54A C67U | < 1e-05
48 | A6C G43A G59C C70U | < 1e-05
49 | U45G U57A | 9.86e-05 ± 1.3e-05
50 | C8A U65G | < 1e-05
51 | A6G C50G C68G | 2.86e-05 ± 1.1e-05
52 | C10U A42G | 3.17e-05 ± 7.6e-06
53 | C10G G32U G44A U54A C68A | < 1e-05
54 | A1C U2A A3U G7A C8G G9C C10G C16G | < 1e-05
55 | C10A A36U G59A G60A | < 1e-05
56 | C8U U30G G43C | < 1e-05
57 | C8A A14G C70G | < 1e-05
58 | G7A U30G A33G U69G | 0.000162 ± 2.9e-05
59 | C8A A14U A39C | < 1e-05
60 | C10A U45A U46C C70A | < 1e-05
61 | G9A U56C C58G | < 1e-05
62 | C10U C11U G66C | < 1e-05
63 | C8A C50G U54G C68U | 6.41e-05 ± 2.3e-05
64 | A6U G59A U69G | < 1e-05
65 | G7A U30G G41A C70A | < 1e-05

Row | Variant | self-cleavage kobs at 10000 uM GlcN6P [s⁻¹]
66 | G44A G51U U57A | < 1e-05
67 | G7U C8A G9U U31C A33U | < 1e-05
68 | C11A G44U C67U | 4.33e-05 ± 2.1e-05
69 | G40A G43C G60C C67U | < 1e-05
70 | G9U A12G C16A | < 1e-05
71 | C8U C61U C68G | 0.000133 ± 4.3e-05
72 | C10G U55C | < 1e-05
73 | C8U C50A G51U A52U | < 1e-05
74 | G7U A14U G38C U57C G60U C67U | < 1e-05
75 | G9A A15U A39G A52U G60U | < 1e-05
76 | G41C U49A U65A | < 1e-05
77 | C8U A36U U45A | < 1e-05
78 | A6C G7C G32A A52U | < 1e-05
79 | C10U U49G C58G | < 1e-05
80 | A6G G29A G60C G63C | < 1e-05
81 | U57C G66A | 0.000102 ± 1.5e-05
82 | G7A G29C G32U U57C C58A | < 1e-05
83 | C10U G35U A42G U56G | < 1e-05
84 | C10U C16U A39C U65C | < 1e-05
85 | A6C A36U U69A | < 1e-05
86 | C10U A12G G13U A14C G41A | < 1e-05
